In US20100113339A1:

Experiments:
[1] = target: mouse serum albumin (mouse) (UniProt P07724); assay: SPR Biacore 3000; mouse albumin against human/rhesus albumin as reference
[2] = target: human serum albumin (human) (UniProt P02768); assay: SPR Biacore 3000, albumin amine-coupled on CM5 chip, nanobody concentration series
[3] = target: mouse serum albumin (mouse) (UniProt P07724); assay: as above
[4] = target: rhesus serum albumin (rhesus) (UniProt Q28522); assay: as above
Sequence of rhesus serum albumin (rhesus) (Q28522 17-600 limits assumed): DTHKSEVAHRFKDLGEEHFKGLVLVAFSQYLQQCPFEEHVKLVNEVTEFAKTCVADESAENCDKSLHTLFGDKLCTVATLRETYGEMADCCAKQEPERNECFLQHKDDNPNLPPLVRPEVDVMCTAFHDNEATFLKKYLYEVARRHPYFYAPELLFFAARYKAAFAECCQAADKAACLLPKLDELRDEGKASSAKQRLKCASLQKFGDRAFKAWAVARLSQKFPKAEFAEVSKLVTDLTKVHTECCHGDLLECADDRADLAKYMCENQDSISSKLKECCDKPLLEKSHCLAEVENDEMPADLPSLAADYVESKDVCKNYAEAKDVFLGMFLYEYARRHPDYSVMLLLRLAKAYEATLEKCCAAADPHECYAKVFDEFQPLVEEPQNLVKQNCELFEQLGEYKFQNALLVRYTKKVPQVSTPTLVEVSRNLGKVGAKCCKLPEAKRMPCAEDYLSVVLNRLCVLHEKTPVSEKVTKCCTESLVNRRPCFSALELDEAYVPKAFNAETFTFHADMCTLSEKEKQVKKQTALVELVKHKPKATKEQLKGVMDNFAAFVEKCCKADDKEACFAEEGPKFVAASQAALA

Sequence of PMP6A6 (ALB1) (VHH) (VHH): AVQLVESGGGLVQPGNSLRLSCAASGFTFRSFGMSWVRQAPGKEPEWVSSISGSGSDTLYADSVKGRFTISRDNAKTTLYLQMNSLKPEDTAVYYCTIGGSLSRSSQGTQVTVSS
Sequence of mouse serum albumin (mouse) (P07724 25-608 limits assumed): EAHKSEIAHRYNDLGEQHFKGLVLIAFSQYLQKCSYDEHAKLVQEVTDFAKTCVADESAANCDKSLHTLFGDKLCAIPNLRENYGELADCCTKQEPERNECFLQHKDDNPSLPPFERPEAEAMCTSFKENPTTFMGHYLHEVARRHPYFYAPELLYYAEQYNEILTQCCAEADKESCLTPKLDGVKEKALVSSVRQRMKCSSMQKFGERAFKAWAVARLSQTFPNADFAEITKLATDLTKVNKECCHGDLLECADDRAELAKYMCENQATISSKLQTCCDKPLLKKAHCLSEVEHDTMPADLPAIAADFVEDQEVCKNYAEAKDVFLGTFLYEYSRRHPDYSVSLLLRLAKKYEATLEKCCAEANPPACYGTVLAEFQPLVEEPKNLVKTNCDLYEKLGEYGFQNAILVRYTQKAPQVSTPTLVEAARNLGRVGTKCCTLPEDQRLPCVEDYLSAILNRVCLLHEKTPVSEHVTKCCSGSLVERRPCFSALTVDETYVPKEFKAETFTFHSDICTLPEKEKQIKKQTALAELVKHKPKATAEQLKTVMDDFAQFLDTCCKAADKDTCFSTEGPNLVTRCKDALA

PMP6A6 (ALB1) (VHH)
factor of difference in affinity for human/rhesus versus mouse serum albumin [1]: 12 fold
Kd [2]: 570 pM
koff [2]: 0.00063 s⁻¹
kon [2]: 1.11e+06 M⁻¹ s⁻¹
Kd [3]: 6500 pM
koff [3]: 0.00725 s⁻¹
kon [3]: 1.11e+06 M⁻¹ s⁻¹
Kd [4]: 520 pM
koff [4]: 0.000546 s⁻¹
kon [4]: 1.05e+06 M⁻¹ s⁻¹
